Publication PMC2789969 (Archives of biochemistry and biophysics, 2009)
Changes are numbered by the printed parent chain. In names and notes the source's numbering stands. Like-named read-outs stand apart in the source and are kept apart here.

B1: IIA^Glc, the glucose-specific phosphocarrier protein of the phosphoenolpyruvate:glycose phosphotransferase system (natural protein)
chain: GLFDKLKSLVSDDKKDTGTIEIIAPLSGEIVNIEDVPDVVFAEKIVGDGIAIKPTGNKMVAPVDGTIGKIFETNHAFSIESDSGVELFVHFGIDTVELKGEGFKRIAEEGQRVKVGDTVIEFDLPLLEEKAKSTLTPVVISNMDEIKELIKLSGSVTVGETPVIRIKK
B2: R369A EGK (enzyme, Escherichia coli, UniProt P0A6F3 1-502, looked up)
chain: MTEKKYIVALDQGTTSSRAVVMDHDANIISVSQREFEQIYPKPGWVEHDPMEIWATQSSTLVEVLAKADISSDQIAAIGITNQRETTIVWEKETGKPIYNAIVWQCRRTAEICEHLKRDGLEDYIRSNTGLVIDPYFSGTKVKWILDHVEGSRERARRGELLFGTVDTWLIWKMTQGRVHVTDYTNASRTMLFNIHTLDWDDKMLEVLDIPREMLPEVRRSSEVYGQTNIGGKGGTRIPISGIAGDQQAALFGQLCVKEGMAKNTYGTGCFMLMNTGEKAVKSENGLLTTIACGPTGEVNYALEGAVFMAGASIQWLRDEMKLINDAYDSEYFATKVQNTNGVYVVPAFTGLGAPYWDPYARGAIFGLTAGVNANHIIRATLESIAYQTRDVLEAMQADSGIRLHALRVDGGAVANNFLMQFQSDILGTRVERPEVREVTALGAAYLAGLAVGFWQNLDELQEKAVIEREFRPGIETTERNYRYAGWKKAVKRAMAWEEHDE
B3: A65T EGK (enzyme, Escherichia coli, UniProt P0A6F3 1-502, looked up)
chain: B2 chain with A66T, A370R

Assays:
[1] = target: B3; assay: linked-functions initial-velocity enzyme kinetics
[2] = target: T1, Escherichia coli glycerol kinase (Escherichia coli, UniProt P0A6F3 1-502); assay: linked-functions initial-velocity enzyme kinetics
[3] = target: B2; assay: linked-functions initial-velocity enzyme kinetics
[4] = target: B3; assay: linked-functions initial-velocity enzyme kinetics; remark: listed apart in the source
[5] = target: T1, Escherichia coli glycerol kinase; assay: linked-functions initial-velocity enzyme kinetics; remark: listed apart in the source
[6] = target: B2; assay: linked-functions initial-velocity enzyme kinetics; remark: listed apart in the source
[7] = target: the molecule itself; assay: AUC

Binder: B1
Kd [1]: 28 µM | Kd [2]: 7 µM | Kd [3]: 2 µM | Kd [4]: 8 µM | Kd [5]: 4.6 µM | Kd [6]: 1.8 µM

Binder: B2
stoichiometry N [7]: 4

Binder: B3
binding result [7]: binds
